Earlier results, collected in article PMC3210788.

Biological target: VEGFR-1 (Mus musculus) (UniProt P35969)
Sequence of UniProt P35969 (P35969 23-1333 S1181G): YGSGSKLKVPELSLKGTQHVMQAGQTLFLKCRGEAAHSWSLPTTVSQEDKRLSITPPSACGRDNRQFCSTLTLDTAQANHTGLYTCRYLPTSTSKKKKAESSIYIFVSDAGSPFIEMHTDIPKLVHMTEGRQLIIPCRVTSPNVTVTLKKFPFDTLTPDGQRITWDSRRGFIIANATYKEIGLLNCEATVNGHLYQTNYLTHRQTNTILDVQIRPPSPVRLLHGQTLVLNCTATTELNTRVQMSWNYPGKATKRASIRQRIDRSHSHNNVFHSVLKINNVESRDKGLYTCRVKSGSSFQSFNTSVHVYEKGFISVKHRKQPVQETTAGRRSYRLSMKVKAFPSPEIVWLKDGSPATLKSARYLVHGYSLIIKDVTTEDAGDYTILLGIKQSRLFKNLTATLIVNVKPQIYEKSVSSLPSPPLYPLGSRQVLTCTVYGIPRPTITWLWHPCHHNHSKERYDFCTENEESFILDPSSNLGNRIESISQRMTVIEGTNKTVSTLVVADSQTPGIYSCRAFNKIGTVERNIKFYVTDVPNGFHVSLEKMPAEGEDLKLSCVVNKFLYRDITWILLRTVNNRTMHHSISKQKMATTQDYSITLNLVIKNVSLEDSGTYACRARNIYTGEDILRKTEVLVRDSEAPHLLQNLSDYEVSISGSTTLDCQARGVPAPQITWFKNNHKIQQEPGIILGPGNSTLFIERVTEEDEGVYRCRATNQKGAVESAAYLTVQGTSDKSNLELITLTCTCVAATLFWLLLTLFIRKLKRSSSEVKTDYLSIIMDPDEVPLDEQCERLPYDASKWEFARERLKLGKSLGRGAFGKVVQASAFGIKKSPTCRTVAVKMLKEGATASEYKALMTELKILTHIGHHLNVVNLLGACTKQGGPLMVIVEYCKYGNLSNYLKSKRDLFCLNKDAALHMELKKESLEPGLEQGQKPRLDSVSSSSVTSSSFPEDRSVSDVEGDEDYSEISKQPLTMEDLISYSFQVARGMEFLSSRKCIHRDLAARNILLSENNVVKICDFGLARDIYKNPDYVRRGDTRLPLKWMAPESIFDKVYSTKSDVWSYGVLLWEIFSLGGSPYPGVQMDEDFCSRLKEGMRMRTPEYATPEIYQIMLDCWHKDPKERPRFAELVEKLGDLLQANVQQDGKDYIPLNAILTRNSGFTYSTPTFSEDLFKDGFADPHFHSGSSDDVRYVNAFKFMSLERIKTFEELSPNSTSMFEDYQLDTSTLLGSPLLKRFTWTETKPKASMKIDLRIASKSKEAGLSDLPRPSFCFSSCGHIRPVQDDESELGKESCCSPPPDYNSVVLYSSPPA

Kd: 0.033 nM
Substance: VEGF (from UniProt Q00731)
